± gives the uncertainty stated by the source.
Assay: self-splicing fitness, log relative to wild type (ln ratio); higher = more splicing; Tetrahymena group I intron in knt gene, E. coli kanamycin selection, DiMSum; sequences stand for … in CUCUCU…GGAGGGAAAAGUUAUCAGGCAUGCACCUGGUAGCUAGUCUUUAAACCAAUAGAUUGCAUCGGUUUAAAAGGCAAGACCGUCAAAUUGCGGGAAAGGGGUCAACAGCCGUUCAGUACCAAGUCUCAGGGGAAACUUUGAGAUGGCCUUGCAAAGGGUAUGGUAAUAAGCUGACGGACAUGGUCCUAACCACGCAGCCAAGUCCUAAGUCAACAGAUCUUCUGUUGAUAUGGAUGCAGUUCACAGACUAAAUGUCGGUCGGGGAAGAUGUAUUCUUCUCAUAAGAUAUAGUCGGACCUCUCCUUAAUGGGAGCUAGCGGAUGAAGUGAUGCAACACUGGAGCCGCUGGGAACUAAUUUGUAUGCGAAAGUAUAUUGAUUAGUUUUGGAGUACUCGUGGUCG
How it was run: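 The eight P1ex-region nucleotides of an intron in the knt kanamycin-resistance gene on pET-22b(+) were all randomised and the library put into E. coli BL21(DE3). Six replicate transformations were grown overnight at 37°C or 30°C on LB agar with or without 25 μg/mL kanamycin, together with 100 μg/mL carbenicillin, 50 μM IPTG and 0.2% rhamnose. Colonies were pooled and amplicon-sequenced on an Illumina HiSeq 2500. Fitness from DiMSum is the error-weighted combination of wild-type-normalised replicate fold changes, kanamycin over none.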

Sequence | self-splicing fitness (ln) (30 °C) | self-splicing fitness (ln) (37 °C)
CCACAGCAAUAUUACGGACG | -0.832 ± 0.05 | -0.23 ± 0.066
AUAGAGCAAUAUUACGAAGU | -0.306 ± 0.1 | -0.662 ± 0.14
ACAAAGCAAUAUUACGGUAA | -2.45 ± 0.17 | -1.49 ± 0.13
CAUUAGCAAUAUUACGCUAG | -2.75 ± 0.28 | -0.852 ± 0.2
CCUUAGCAAUAUUACGGGAC | -3.96 ± 0.46 | –
GAUCAGCAAUAUUACGAUUU | -0.286 ± 0.085 | 0.0945 ± 0.1
GUUAAGCAAUAUUACGCCCG | -0.342 ± 0.39 | -1.05 ± 0.45
UCGCAGCAAUAUUACGGUUA | -0.15 ± 0.086 | -0.398 ± 0.087
GCGUAGCAAUAUUACGACAA | -0.888 ± 0.12 | -0.789 ± 0.13
GCGCAGCAAUAUUACGAACA | -1.64 ± 0.12 | -1.32 ± 0.097
CACUAGCAAUAUUACGCUAC | – | -2.31 ± 0.25
AACGAGCAAUAUUACGAUAG | -3.04 ± 0.22 | -2.49 ± 0.22
UAAAAGCAAUAUUACGGAUG | -0.849 ± 0.077 | 0.0272 ± 0.099
GGUCAGCAAUAUUACGGACG | -0.915 ± 0.11 | 0.0247 ± 0.16
CGGCAGCAAUAUUACGGAAC | -2.88 ± 0.16 | -3.76 ± 0.33
UGACAGCAAUAUUACGGGCC | -3.34 ± 0.22 | -2.23 ± 0.27
GAAGAGCAAUAUUACGAUAA | -3.7 ± 0.29 | -2.11 ± 0.22
UUUAAGCAAUAUUACGAUUC | -2.23 ± 0.23 | -0.889 ± 0.19
CCGGAGCAAUAUUACGGGGG | -3.5 ± 0.2 | -1.83 ± 0.17
UAAGAGCAAUAUUACGAUUG | -1.72 ± 0.11 | -0.83 ± 0.12
GUAUAGCAAUAUUACGUCCU | -1.56 ± 0.15 | -0.00945 ± 0.19
UUUUAGCAAUAUUACGCGUU | -2.55 ± 0.18 | -2.61 ± 0.19
UCAAAGCAAUAUUACGGAUU | -3.73 ± 0.24 | -2.26 ± 0.21
CGCGAGCAAUAUUACGAGGG | -3.3 ± 0.22 | -2.71 ± 0.22
GUUGAGCAAUAUUACGCGUU | -4.25 ± 0.46 | -2.15 ± 0.28
UUACAGCAAUAUUACGAGUG | -1.16 ± 0.069 | -0.895 ± 0.079

Sequence | self-splicing fitness (ln) (30 °C) | self-splicing fitness (ln) (37 °C)
AACGAGCAAUAUUACGGUGG | -3.68 ± 0.32 | -2.05 ± 0.34
UCCUAGCAAUAUUACGGGGU | -4.13 ± 0.29 | -2.65 ± 0.2
GAAUAGCAAUAUUACGUAGU | -2.61 ± 0.12 | -1.99 ± 0.18
AACGAGCAAUAUUACGAUGU | -2.35 ± 0.2 | -1.99 ± 0.17
UUAUAGCAAUAUUACGCGGU | -3.14 ± 0.28 | -1.64 ± 0.28
UAGGAGCAAUAUUACGGCGG | -2.34 ± 0.24 | -0.013 ± 0.26
GGCGAGCAAUAUUACGGCCA | -1.39 ± 0.21 | -1.35 ± 0.27
AUUGAGCAAUAUUACGGGGA | -2.32 ± 0.24 | -2.49 ± 0.28
CGUCAGCAAUAUUACGGAAG | -0.632 ± 0.088 | 0.304 ± 0.12
CGAGAGCAAUAUUACGUAUA | -4.06 ± 0.36 | –
UAUGAGCAAUAUUACGUGAG | -2.91 ± 0.14 | -2.74 ± 0.23
GCAAAGCAAUAUUACGGCUA | -0.821 ± 0.07 | -0.279 ± 0.073
UGCUAGCAAUAUUACGCAAG | -3.87 ± 0.33 | -3.11 ± 0.25
AGACAGCAAUAUUACGCCAU | -3.25 ± 0.26 | -1.78 ± 0.17
UAGCAGCAAUAUUACGCACG | -0.945 ± 0.13 | -0.318 ± 0.14
GCAUAGCAAUAUUACGAGCU | -3.2 ± 0.19 | -1.31 ± 0.15
ACGUAGCAAUAUUACGCAUG | -2.97 ± 0.15 | -0.981 ± 0.11
UGUCAGCAAUAUUACGGCCU | -0.452 ± 0.23 | 0.483 ± 0.3
AUAUAGCAAUAUUACGUAAA | -2.17 ± 0.21 | -1.56 ± 0.29
ACUAAGCAAUAUUACGAAAC | -3.55 ± 0.12 | -2.3 ± 0.16
GCACAGCAAUAUUACGGUAA | -1.06 ± 0.075 | -0.547 ± 0.079
AGUCAGCAAUAUUACGGAAA | -2.78 ± 0.19 | -2 ± 0.15
UGUCAGCAAUAUUACGGAGU | -3.6 ± 0.17 | -1.96 ± 0.15
UAAGAGCAAUAUUACGCUGG | -2.31 ± 0.26 | -2.37 ± 0.27
CCCGAGCAAUAUUACGAUAC | -2.29 ± 0.27 | -1.57 ± 0.36
CGCUAGCAAUAUUACGGAGA | – | -2.2 ± 0.36

Sequence | self-splicing fitness (ln) (30 °C) | self-splicing fitness (ln) (37 °C)
AGGAAGCAAUAUUACGGCUA | -0.35 ± 0.11 | 0.0571 ± 0.15
AAGUAGCAAUAUUACGGGAG | -4.01 ± 0.27 | -2.82 ± 0.23
GAAGAGCAAUAUUACGACAA | – | -2.02 ± 0.38
CUGCAGCAAUAUUACGUCUA | -1.64 ± 0.12 | -0.709 ± 0.15
UUCAAGCAAUAUUACGGCCA | -1.31 ± 0.13 | -0.977 ± 0.13
UAUUAGCAAUAUUACGUUCA | -1.04 ± 0.1 | -0.21 ± 0.14
GACCAGCAAUAUUACGUAUC | -0.803 ± 0.1 | -0.659 ± 0.11
CCGCAGCAAUAUUACGAGCA | -3.01 ± 0.38 | -3.24 ± 0.47
AUUGAGCAAUAUUACGGUCC | – | -1.58 ± 0.22
AGCUAGCAAUAUUACGAGCC | -3.51 ± 0.32 | -2.5 ± 0.49
CCCCAGCAAUAUUACGCUGG | -2.76 ± 0.11 | -1.73 ± 0.14
UACCAGCAAUAUUACGCCAC | -3.59 ± 0.2 | -3.17 ± 0.37
AGUAAGCAAUAUUACGCGAG | -3.33 ± 0.21 | -1.75 ± 0.15
UGAAAGCAAUAUUACGGCCG | -0.266 ± 0.091 | 0.807 ± 0.15
GGCUAGCAAUAUUACGGCGC | 0.164 ± 0.14 | 0.272 ± 0.16
CCAAAGCAAUAUUACGACAC | – | -3.02 ± 0.25
CACAAGCAAUAUUACGAUGC | -4.12 ± 0.31 | -2.69 ± 0.27
GUGCAGCAAUAUUACGCCCG | -1.69 ± 0.36 | -1.51 ± 0.37
UCCAAGCAAUAUUACGUCGG | -1.11 ± 0.074 | -0.182 ± 0.091
AAGGAGCAAUAUUACGUGAA | -2.22 ± 0.34 | –
AGGUAGCAAUAUUACGGCCC | -2.77 ± 0.044 | -1.91 ± 0.058
ACCUAGCAAUAUUACGUACA | -1.31 ± 0.14 | -0.964 ± 0.17
CUCAAGCAAUAUUACGGAGC | -3.11 ± 0.11 | -2.54 ± 0.14
AGCAAGCAAUAUUACGUUAU | -2.78 ± 0.11 | -1.54 ± 0.12
AUCUAGCAAUAUUACGUAGU | -1.83 ± 0.096 | -0.758 ± 0.11
GAAUAGCAAUAUUACGGAGU | -2.02 ± 0.18 | -2.03 ± 0.23

From the supplement of paper PMC7877785
